Test results reported in US20200048328A1 (Bristol-Myers Squibb, published 2020).
Where a chain is given by its changes, count along the chain named.

B1: 5963_E02.PS5-2 (designed binder)
chain: MGVSDVPRDLEVVAATPTSLLISWDAPAVTVRYYRITYGREVQKYSDLGPLYIYQEFTVPGSKSCATISGLKPGVDYTITVYAVTGSGESPASSKPISINYRTPHHHHHH
B2: 5963_E01.PS5-2 (designed binder)
chain: B1 chain with C65T, T67C
B3: 5963_F03.PS5-2 (designed binder)
chain: B1 chain with A28C, C65T
B4: PCSK9-PKE2 tandem Adnectin w/o his tag 5190_E01 (designed binder)
chain: MGVSDVPRDLEVVAATPTSLLISWDAPAEGYGYYRITYGETGGNSPVQEFTVPVSKGTATISGLKPGVDYTITVYAVEFDFPGAGYYHRPISINYRTEPSTPPTPSPSTPPTPSPSGVSDVPRDLEVVAATPTSLLISWDAPAVTVRYYRITYGREVQKYSDLGPLYIYQEFTVPGSKSTATISGLKPGVDYTITVYAVTGSGESPASSKPISINYRTP
notes: also called ATI-1676; 4472_C06 tandem Adnectin without a 6X histidine tail
B5: 5916_E03.PS5-2 (designed binder)
chain: MGVSDVPRDLEVVAATPTSLLISWDAPAVTVRYYRITYGREVQKYSDLGPLYIYQEFTVPGSKSTATISGLKPGVDYTITVYAVTGSGESPASSKPISINYRTPCHHHHHH

Experiments:
[1] = target: T1, human serum albumin (human, UniProt P02768 25-609); assay: SPR, albumin immobilized, Adnectin 250 nM
T1 construct: immobilized on chips or coated on plates elsewhere; also called HSA; HuSA

[2] = target: T2, rhesus serum albumin (rhesus, UniProt Q28522 17-600); assay: SPR, albumin immobilized, Adnectin 250 nM
T2 construct: also called RhSA; Rh-SA

[3] = target: T3, mouse serum albumin (mouse, UniProt P07724 25-608); assay: SPR, albumin immobilized, Adnectin 250 nM
T3 construct: also called MSA; MuSA

[4] = target: T4, rat serum albumin (rat, UniProt P02770 25-608); assay: SPR, albumin immobilized, Adnectin 250 nM
T4 construct: also called Rat SA; RSA

[5] = target: T1, human serum albumin; assay: SPR, albumin immobilized
Description: (§1) To determine the kinetics of binding to human, rhesus, and mouse serum albumin, as well as whether binding was retained at both physiological and endosomal pHs, the respective serum albumins were immobilized on a Biacore CMS chip to a surface density of ˜1200 RU using standard NHS/EDC coupling. […] Kinetic measurements were carried out using a 3 min association and 6-10 min dissociation phase. Kinetic traces of reference-subtracted sensorgrams were fit to a 1:1 binding model using the Biaevaluation software.

[6] = target: T2, rhesus serum albumin; assay: SPR, albumin immobilized
Description: as §1

[7] = target: T3, mouse serum albumin; assay: SPR, albumin immobilized
Description: as §1

[8] = target: T5, cynomolgus serum albumin (cynomolgus, UniProt A2V9Z4 25-608); assay: SPR, albumin immobilized
T5 construct: also called cynoSA; CySA
Description: as §1

[9] = target: T4, rat serum albumin; assay: SPR, albumin immobilized
Description: as §1

T4 sequence (P02770 25-608 limits assumed): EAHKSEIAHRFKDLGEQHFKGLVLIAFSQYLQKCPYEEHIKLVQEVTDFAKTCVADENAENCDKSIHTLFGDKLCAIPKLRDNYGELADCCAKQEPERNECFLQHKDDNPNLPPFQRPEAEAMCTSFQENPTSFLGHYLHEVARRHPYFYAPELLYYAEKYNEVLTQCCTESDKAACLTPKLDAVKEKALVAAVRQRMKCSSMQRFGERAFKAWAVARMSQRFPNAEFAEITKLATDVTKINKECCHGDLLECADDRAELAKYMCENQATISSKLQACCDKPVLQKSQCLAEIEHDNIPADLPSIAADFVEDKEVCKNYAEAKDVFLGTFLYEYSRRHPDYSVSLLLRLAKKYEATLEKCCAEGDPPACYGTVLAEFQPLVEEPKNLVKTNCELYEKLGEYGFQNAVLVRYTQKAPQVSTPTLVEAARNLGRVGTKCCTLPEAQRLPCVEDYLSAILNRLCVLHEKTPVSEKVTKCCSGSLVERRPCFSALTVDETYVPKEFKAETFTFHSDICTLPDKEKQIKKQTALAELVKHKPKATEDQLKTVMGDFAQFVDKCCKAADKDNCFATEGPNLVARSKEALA
T2 sequence (Q28522 17-600 limits assumed): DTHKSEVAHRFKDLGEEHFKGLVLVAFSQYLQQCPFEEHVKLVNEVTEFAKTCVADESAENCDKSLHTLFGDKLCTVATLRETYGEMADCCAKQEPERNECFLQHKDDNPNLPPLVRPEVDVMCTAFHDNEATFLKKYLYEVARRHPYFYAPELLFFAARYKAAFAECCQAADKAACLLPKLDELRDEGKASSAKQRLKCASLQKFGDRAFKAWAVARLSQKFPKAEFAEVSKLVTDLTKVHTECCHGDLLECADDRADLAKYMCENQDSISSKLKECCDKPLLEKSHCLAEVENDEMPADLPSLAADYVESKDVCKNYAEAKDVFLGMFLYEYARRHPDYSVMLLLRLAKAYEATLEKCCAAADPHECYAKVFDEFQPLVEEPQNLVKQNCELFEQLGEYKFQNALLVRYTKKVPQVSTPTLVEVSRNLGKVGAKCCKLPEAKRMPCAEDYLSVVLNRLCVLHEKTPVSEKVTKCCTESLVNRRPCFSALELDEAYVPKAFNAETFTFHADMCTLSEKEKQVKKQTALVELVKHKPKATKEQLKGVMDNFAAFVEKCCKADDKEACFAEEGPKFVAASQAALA
T5 sequence (A2V9Z4 25-608 limits assumed): as the sequence (Q28522 17-600 limits assumed) above
T3 sequence (P07724 25-608 limits assumed): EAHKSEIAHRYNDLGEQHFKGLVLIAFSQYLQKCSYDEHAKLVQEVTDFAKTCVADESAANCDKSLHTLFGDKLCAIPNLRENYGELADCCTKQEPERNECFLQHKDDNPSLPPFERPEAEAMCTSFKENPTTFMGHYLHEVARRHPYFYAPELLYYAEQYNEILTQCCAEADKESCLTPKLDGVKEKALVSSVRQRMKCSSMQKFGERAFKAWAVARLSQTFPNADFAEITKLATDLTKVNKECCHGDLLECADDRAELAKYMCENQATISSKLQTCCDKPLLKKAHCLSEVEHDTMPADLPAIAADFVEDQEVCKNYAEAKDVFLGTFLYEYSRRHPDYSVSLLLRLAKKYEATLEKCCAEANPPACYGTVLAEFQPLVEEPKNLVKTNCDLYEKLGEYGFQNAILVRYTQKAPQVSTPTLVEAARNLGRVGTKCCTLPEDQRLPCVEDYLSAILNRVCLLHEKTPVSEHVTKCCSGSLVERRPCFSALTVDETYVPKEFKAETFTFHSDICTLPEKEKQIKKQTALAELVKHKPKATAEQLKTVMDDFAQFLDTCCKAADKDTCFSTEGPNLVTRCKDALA

Binder | koff [1] [s⁻¹] | koff [2] [s⁻¹] | koff [3] [s⁻¹] | koff [4] [s⁻¹] | further results
B1 | 0.000228 | 0.000284 | 0.000461 | 0.00076 | –
B2 | 0.00025 | 0.000313 | 0.000507 | 0.000848 | –
B3 | 0.000251 | 0.000312 | 0.000504 | 0.000825 | –
B4 | – | – | – | – | Kd [5]: 57.2 nM; koff [5]: 0.000272 s⁻¹; kon [5]: 4790 M⁻¹ s⁻¹; Kd [6]: 53.8 nM; koff [6]: 0.000351 s⁻¹; kon [6]: 6520 M⁻¹ s⁻¹; Kd [7]: 43.3 nM; koff [7]: 0.000723 s⁻¹; kon [7]: 16700 M⁻¹ s⁻¹; Kd [8]: 50.5 nM; koff [8]: 0.000326 s⁻¹; kon [8]: 6440 M⁻¹ s⁻¹; Kd [9]: 200 nM; koff [9]: 0.00147 s⁻¹; kon [9]: 7350 M⁻¹ s⁻¹
B5 | 0.000211 | 0.000272 | 0.000452 | 0.000786 | –
